Experimental data as given in patent publication US20230248825.

Key:
Assay in all cases: cell_activity
Settings in all cases: primary human T cells; as pair; two GMCSF TALEN constructs used, value not split by construct
[1] = tested on: GMCSF_Tal_1 TALEN right monomer (artificial)
[2] = tested on: GMCSF_Tal_2 TALEN left monomer (artificial)
[3] = tested on: GMCSF_Tal_2 TALEN right monomer (artificial)
[4] = tested on: GMCSF_Tal_1 TALEN left monomer (artificial)

“CACTGTGGCCTGCAGCA (double strand) [GMCSF_Tal_1 right half-site]” gave an activity (% reduction in GMCSF secretion) [1] of 90.
“TCCTGAACCTGAGTAGA (double strand) [GMCSF_Tal_2 left half-site]” showed an activity (% reduction in GMCSF secretion) [2] of 90.
“TGAGATGGTAAGTGAGA (double strand) [GMCSF_Tal_2 right half-site]” was tested, and the activity (% reduction in GMCSF secretion) [3] was 90.
Work on “TGTGGCTGCAGAGCCTG (double strand) [GMCSF_Tal_1 left half-site]” yielded an activity (% reduction in GMCSF secretion) [4] of 90.
